From the supplement of paper PMC9112550, “Optimization of the antimicrobial peptide Bac7 by deep mutational scanning” (BMC Biology, 2022) come the findings set out here.

The subject of this series is Escherichia coli TOP10. The series can be described thus: shrunken log2 fold change of peptide-encoding DNA abundance (4.5 h post-induction vs induction); higher = less antimicrobial activity (less host growth inhibition). The note with it: time post-induction: 4.5 h; library: site-saturation at positions 5, 18, 19, 20.
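Note: peptides expressed intracellularly from a pBAD plasmid library in pooled LB shake-flask culture, induced with 0.3% L-arabinose, DNA abundance read by NGS, three biological replicates, DESeq2 with apeglm shrinkage.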

For the sequence RRIRDRPPRLPRPRPRPKTDPRP, the “shrunken log2 fold change” value was -0.314.
In the case of RRIRHRPPRLPRPRPRPKKQPRP, the “shrunken log2 fold change” value is -0.0264.
Take RRIRGRPPRLPRPRPRPPIYPRP: the “shrunken log2 fold change” value came to 0.132.
To RRIRDRPPRLPRPRPRPNQRPRP belongs -0.264; to RRIRDRPPRLPRPRPRPAMFPRP, -0.228.
With RRIRPRPPRLPRPRPRPVNMPRP, the “shrunken log2 fold change” value was found to be 0.0158.
For RRIRERPPRLPRPRPRPFTQPRP the value was -0.299.
For RRIRRRPPRLPRPRPRPSWYPRP the value was 0.363; for RRIRPRPPRLPRPRPRPSKDPRP, -0.451; for RRIRFRPPRLPRPRPRPIDMPRP, -0.727.
For the sequence RRIRLRPPRLPRPRPRPFIAPRP, the “shrunken log2 fold change” value is -0.496.
As for RRIRQRPPRLPRPRPRPSIRPRP, the “shrunken log2 fold change” value is -0.523.
Turning to RRIRGRPPRLPRPRPRPCCSPRP, the “shrunken log2 fold change” value is 0.107.
To RRIRVRPPRLPRPRPRPLEGPRP belongs 0.138.
To RRIRRRPPRLPRPRPRPWMMPRP belongs 0.0519; to RRIRRRPPRLPRPRPRPSKWPRP, -0.149.
As for RRIRLRPPRLPRPRPRPSRVPRP, the “shrunken log2 fold change” value came out at 0.00872.
Consider RRIRGRPPRLPRPRPRPHWIPRP, for which the “shrunken log2 fold change” value was -0.304.
For the sequence RRIRSRPPRLPRPRPRPMAHPRP, the “shrunken log2 fold change” value turned out to be 0.218.
Turning to RRIRYRPPRLPRPRPRPCEAPRP, the “shrunken log2 fold change” value was -0.123.
As for RRIRYRPPRLPRPRPRPSYLPRP, the “shrunken log2 fold change” value was -1.08.
For RRIRARPPRLPRPRPRPANVPRP, the “shrunken log2 fold change” value was -0.0645.
To RRIRRRPPRLPRPRPRPKHHPRP belongs 0.346.
As to RRIRWRPPRLPRPRPRPCFPPRP, the “shrunken log2 fold change” value was -0.164.
Turning to RRIRRRPPRLPRPRPRPKNNPRP, the “shrunken log2 fold change” value is -0.0641.
For the sequence RRIRGRPPRLPRPRPRPIVMPRP, the “shrunken log2 fold change” value was -0.0978.
Take RRIRSRPPRLPRPRPRPMKGPRP: the “shrunken log2 fold change” value is -0.311.
On to RRIRCRPPRLPRPRPRPDMQPRP, for which the “shrunken log2 fold change” value is -0.672.
As for RRIRLRPPRLPRPRPRPVVRPRP, the “shrunken log2 fold change” value turned out to be 0.148.
RRIRGRPPRLPRPRPRPVKFPRP: the “shrunken log2 fold change” value stood at 0.326.
Consider RRIRGRPPRLPRPRPRPHIAPRP, for which the “shrunken log2 fold change” value came out at 2.17.
Turning to RRIRWRPPRLPRPRPRPKICPRP, the “shrunken log2 fold change” value stood at 0.357.
Regarding RRIRRRPPRLPRPRPRPKAIPRP, the “shrunken log2 fold change” value worked out at 0.111.
Take RRIRNRPPRLPRPRPRPFKMPRP: the “shrunken log2 fold change” value is -0.258.
Take RRIRSRPPRLPRPRPRPIHSPRP: the “shrunken log2 fold change” value is -0.567.
Turning to RRIRLRPPRLPRPRPRPKDTPRP, the “shrunken log2 fold change” value was found to be 0.0949.
Turning to RRIRMRPPRLPRPRPRPQKQPRP, the “shrunken log2 fold change” value turned out to be 0.0157.
RRIRVRPPRLPRPRPRPYCPPRP: the “shrunken log2 fold change” value is -0.462.
As for RRIRNRPPRLPRPRPRPSMIPRP, the “shrunken log2 fold change” value is -0.427.
On to RRIRPRPPRLPRPRPRPGPRPRP, for which the “shrunken log2 fold change” value was 0.677.
Take RRIRMRPPRLPRPRPRPYWAPRP: the “shrunken log2 fold change” value was -0.0573.
In the case of RRIRVRPPRLPRPRPRPRFGPRP, the “shrunken log2 fold change” value worked out at 0.249.
Regarding RRIRSRPPRLPRPRPRPGIRPRP, the “shrunken log2 fold change” value worked out at 0.694.
Regarding RRIRYRPPRLPRPRPRPLTYPRP, the “shrunken log2 fold change” value is -0.144.
To RRIRKRPPRLPRPRPRPGTVPRP belongs 0.0317; to RRIRCRPPRLPRPRPRPMTGPRP, -0.103.
RRIRLRPPRLPRPRPRPSNRPRP: the “shrunken log2 fold change” value was -0.599.
Take RRIRDRPPRLPRPRPRPEWLPRP: the “shrunken log2 fold change” value was found to be 0.382.
As for RRIRHRPPRLPRPRPRPTNIPRP, the “shrunken log2 fold change” value is -0.135.
Take RRIRIRPPRLPRPRPRPDSEPRP: the “shrunken log2 fold change” value came to 0.0636.
As to RRIRQRPPRLPRPRPRPTMFPRP, the “shrunken log2 fold change” value is -0.208.
Regarding RRIRTRPPRLPRPRPRPTAVPRP, the “shrunken log2 fold change” value was -0.133.
As for RRIRFRPPRLPRPRPRPSAEPRP, the “shrunken log2 fold change” value worked out at 0.0747.
As for RRIRKRPPRLPRPRPRPYPCPRP, the “shrunken log2 fold change” value is -0.034.
On to RRIRIRPPRLPRPRPRPICAPRP, for which the “shrunken log2 fold change” value was 0.0269.
Turning to RRIRSRPPRLPRPRPRPLPPPRP, the “shrunken log2 fold change” value is 0.518.
For RRIRYRPPRLPRPRPRPDHLPRP the value was -0.00968; for RRIRGRPPRLPRPRPRPMCDPRP, 1.07; for RRIRQRPPRLPRPRPRPWDDPRP, -0.00146.
To RRIRPRPPRLPRPRPRPWRHPRP belongs -0.0659; to RRIRWRPPRLPRPRPRPDQHPRP, -0.00431; to RRIRWRPPRLPRPRPRPEWYPRP, 0.0654.
To RRIRNRPPRLPRPRPRPSIMPRP belongs -0.611; to RRIRDRPPRLPRPRPRPDTTPRP, 0.345; to RRIRERPPRLPRPRPRPGAVPRP, 1.45.
Consider RRIRVRPPRLPRPRPRPGVNPRP, for which the “shrunken log2 fold change” value was found to be 0.101.
RRIRMRPPRLPRPRPRPSQWPRP: the “shrunken log2 fold change” value is 0.0206.
With RRIRQRPPRLPRPRPRPSDMPRP, the “shrunken log2 fold change” value turned out to be 0.0447.
As for RRIRKRPPRLPRPRPRPHQKPRP, the “shrunken log2 fold change” value is -0.0675.
With RRIRERPPRLPRPRPRPSNGPRP, the “shrunken log2 fold change” value was -0.0949.
On to RRIRRRPPRLPRPRPRPCDIPRP, for which the “shrunken log2 fold change” value turned out to be 0.181.
On to RRIRERPPRLPRPRPRPYATPRP, for which the “shrunken log2 fold change” value is -0.359.
As for RRIRNRPPRLPRPRPRPQHLPRP, the “shrunken log2 fold change” value is -0.517.
As for RRIRNRPPRLPRPRPRPVQCPRP, the “shrunken log2 fold change” value is -0.0226.
Consider RRIRQRPPRLPRPRPRPIVCPRP, for which the “shrunken log2 fold change” value is -0.137.
In the case of RRIRHRPPRLPRPRPRPKFIPRP, the “shrunken log2 fold change” value is -0.192.
As for RRIRRRPPRLPRPRPRPDSFPRP, the “shrunken log2 fold change” value is -0.0228.
Regarding RRIRWRPPRLPRPRPRPYYRPRP, the “shrunken log2 fold change” value was -0.0707.
Consider RRIRDRPPRLPRPRPRPGPPPRP, for which the “shrunken log2 fold change” value stood at 0.733.
As for RRIRERPPRLPRPRPRPHSLPRP, the “shrunken log2 fold change” value was -0.0176.
Turning to RRIRYRPPRLPRPRPRPPLQPRP, the “shrunken log2 fold change” value turned out to be 0.187.
Turning to RRIRVRPPRLPRPRPRPSSCPRP, the “shrunken log2 fold change” value is -0.184.
On to RRIRSRPPRLPRPRPRPIPEPRP, for which the “shrunken log2 fold change” value is 0.208.
To RRIRQRPPRLPRPRPRPFVEPRP belongs -0.152; to RRIRKRPPRLPRPRPRPHMPPRP, -0.175; to RRIRCRPPRLPRPRPRPSPPPRP, 0.252.
Take RRIRTRPPRLPRPRPRPQQPPRP: the “shrunken log2 fold change” value was 0.153.
For RRIRERPPRLPRPRPRPHPRPRP the value was 0.278.
Take RRIRARPPRLPRPRPRPWRYPRP: the “shrunken log2 fold change” value was -0.163.
To RRIRSRPPRLPRPRPRPVCTPRP belongs -0.0518.
On to RRIRARPPRLPRPRPRPANYPRP, for which the “shrunken log2 fold change” value is -0.122.
On to RRIRIRPPRLPRPRPRPTVTPRP, for which the “shrunken log2 fold change” value was -0.303.
Turning to RRIRFRPPRLPRPRPRPDCTPRP, the “shrunken log2 fold change” value is -0.0512.
Take RRIRKRPPRLPRPRPRPSREPRP: the “shrunken log2 fold change” value came out at 0.555.
Turning to RRIRRRPPRLPRPRPRPGMVPRP, the “shrunken log2 fold change” value came out at 0.308.
Take RRIRKRPPRLPRPRPRPTDHPRP: the “shrunken log2 fold change” value turned out to be 0.375.
Regarding RRIRWRPPRLPRPRPRPRLCPRP, the “shrunken log2 fold change” value is 0.512.
Regarding RRIRERPPRLPRPRPRPECCPRP, the “shrunken log2 fold change” value is 0.066.
To RRIRTRPPRLPRPRPRPRCKPRP belongs 0.0432; to RRIRFRPPRLPRPRPRPDIAPRP, 0.101.
For RRIRMRPPRLPRPRPRPQYNPRP the value was -0.934; for RRIRSRPPRLPRPRPRPAEVPRP, -0.0708; for RRIRCRPPRLPRPRPRPAGIPRP, -0.0496.
To RRIRDRPPRLPRPRPRPYCSPRP belongs -0.335.
On to RRIRERPPRLPRPRPRPLDAPRP, for which the “shrunken log2 fold change” value is -0.17.
On to RRIRWRPPRLPRPRPRPINNPRP, for which the “shrunken log2 fold change” value was -0.659.
RRIRTRPPRLPRPRPRPAGRPRP: the “shrunken log2 fold change” value was 0.352.
On to RRIRGRPPRLPRPRPRPCFAPRP, for which the “shrunken log2 fold change” value came to 0.789.
To RRIRTRPPRLPRPRPRPHDRPRP belongs -0.00195.
Take RRIRFRPPRLPRPRPRPHPFPRP: the “shrunken log2 fold change” value is -0.105.
RRIRWRPPRLPRPRPRPACGPRP: the “shrunken log2 fold change” value worked out at 0.508.
With RRIRWRPPRLPRPRPRPCLEPRP, the “shrunken log2 fold change” value worked out at 0.012.
In the case of RRIRLRPPRLPRPRPRPYMIPRP, the “shrunken log2 fold change” value was -0.449.
For RRIRMRPPRLPRPRPRPKCVPRP the value was 0.0964.
As for RRIRIRPPRLPRPRPRPCVCPRP, the “shrunken log2 fold change” value is -0.0463.
With RRIRHRPPRLPRPRPRPWPLPRP, the “shrunken log2 fold change” value is -0.306.
For RRIRPRPPRLPRPRPRPRITPRP, the “shrunken log2 fold change” value was determined as 0.0754.
To RRIRARPPRLPRPRPRPFALPRP belongs 0.185; to RRIRDRPPRLPRPRPRPNLPPRP, -0.0303; to RRIRWRPPRLPRPRPRPVEKPRP, 0.234.
Take RRIRPRPPRLPRPRPRPIIKPRP: the “shrunken log2 fold change” value is -0.417.
With RRIRVRPPRLPRPRPRPKIMPRP, the “shrunken log2 fold change” value was -0.193.
For RRIRERPPRLPRPRPRPPKTPRP, the “shrunken log2 fold change” value is -0.124.
In the case of RRIRHRPPRLPRPRPRPEWKPRP, the “shrunken log2 fold change” value was -0.00613.
Take RRIRMRPPRLPRPRPRPQMGPRP: the “shrunken log2 fold change” value came to 0.0997.
